Test results as given in the supplement of paper PMC5998384.

Assays:
HeLa Kyoto [1] = assay: melting temperature (median over replicates), in situ; higher = more thermally stable
HeLa Kyoto [2] = assay: solubility change mitosis vs G1/S (difference of NP-40 vs SDS log2 ratios) (log2 ratio difference); higher = more soluble in mitosis
HeLa Kyoto [3] = assay: thermal stability score vs G1/S (z-score of summed log2 fold changes over temperatures); higher = more thermally stable than in G1/S
HeLa Kyoto [4] = assay: solubility in G1/S (NP-40 vs SDS abundance) (log2 ratio); higher = more soluble; settings: cell cycle stage: G1/S
[5] = cell cycle stage: early G1 (4.5 h after nocodazole release)
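Throughout, for melting temperature (median over replicates), in situ: HeLa Kyoto cells synchronized by double thymidine or nocodazole block, proteins quantified by TMT10plex mass spectrometry, three independent biological replicates.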
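Throughout, for solubility change mitosis vs G1/S (difference of NP-40 vs SDS log2 ratios): synchronized HeLa Kyoto cells (double thymidine block for G1/S, nocodazole release for mitosis), protein amounts in NP-40 versus SDS lysates quantified by mass spectrometry, three biological replicates.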
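Throughout, for solubility in G1/S (NP-40 vs SDS abundance): HeLa Kyoto cells arrested at G1/S by double thymidine block, proteins quantified by TMT10plex mass spectrometry in mild NP-40 versus SDS extracts, three biological replicates.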
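Throughout, for thermal stability score vs G1/S (z-score of summed log2 fold changes over temperatures): synchronized HeLa Kyoto cells, proteins quantified by TMT10plex mass spectrometry, three biological replicates, mitosis taken 0.5 h after nocodazole release, G1/S directly after double thymidine block.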

Chain of UBE2V2 (chain, as listed by the source): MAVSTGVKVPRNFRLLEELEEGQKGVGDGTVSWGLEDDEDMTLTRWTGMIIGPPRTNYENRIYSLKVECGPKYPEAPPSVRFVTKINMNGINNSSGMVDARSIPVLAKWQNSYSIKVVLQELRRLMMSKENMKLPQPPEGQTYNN

Substance	melting temperature (HeLa Kyoto [1]; cell cycle stage: G1/S)	melting temperature (HeLa Kyoto [1]; cell cycle stage: mitosis)	solubility change mitosis (log2) (HeLa Kyoto [2])	thermal stability score (HeLa Kyoto [3]; [5])	thermal stability score (HeLa Kyoto [3]; cell cycle stage: mitosis)	solubility in G1/S (log2) (HeLa Kyoto [4])
MEVKGKKQFTGKSTKTAQEKNRFHKNSDSGSSKTFPTRKVAKEGGPKVTSRNFEKSITKLGKKGVKQFKNKQQGDKSPKNKFQPANKFNKKRKFQPDGRSDESAAKKPKWDDFKKKKKELKQSRQLSDKTNYDIVVRAKQMWEILRRKDCDKEKRVKLMSDLQKLIQGKIKTIAFAHDSTRVIQCYIQYGNEEQRKQAFEELRDDLVELSKAKYSRNIVKKFLMYGSKPQIAEIIRSFKGHVRKMLRHAEASAIVEYAYNDKAILEQRNMLTEELYGNTFQLYKSADHRTLDKVLEVQPEKLELIMDEMKQILTPMAQKEAVIKHSLVHKVFLDFFTYAPPKLRSEMIEAIREAVVYLAHTHDGARVAMHCLWHGTPKDRKVIVKTMKTYVEKVANGQYSHLVLLAAFDCIDDTKLVKQIIISEIISSLPSIVNDKYGRKVLLYLLSPRDPAHTVREIIEVLQKGDGNAHSKKDTEVRRRELLESISPALLSYLQEHAQEVVLDKSACVLVSDILGSATGDVQPTMNAIASLAATGLHPGGKDGELHIAEHPAGHLVLKWLIEQDKKMKENGREGCFAKTLVEHVGMKNLKSWASVNRGAIILSSLLQSCDLEVANKVKAALKSLIPTLEKTKSTSKGIEILLEKLST [PUM3]	46.6 °C	50 °C	0.758	1.46	3.65	-1.05
MTMDKSELVQKAKLAEQAERYDDMAAAMKAVTEQGHELSNEERNLLSVAYKNVVGARRSSWRVISSIEQKTERNEKKQQMGKEYREKIEAELQDICNDVLELLDKYLIPNATQPESKVFYLKMKGDYFRYLSEVASGDNKQTTVSNSQQAYQEAFEISKKEMQPTHPIRLGLALNFSVFYYEILNSPEKACSLAKTAFDEAIAELDTLNEESYKDSTLIMQLLRDNLTLWTSENQGDEGDAGEGEN [YWHAB]	52.6 °C	52.8 °C	0.402	-1.46	-2.76	0.324
MNLFNLDRFRFEKRNKIEEAPEATPQPSQPGPSSPISLSAEEENAEGEVSRANTPDSDITEKTEDSSVPETPDNERKASISYFKNQRGIQYIDLSSDSEDVVSPNCSNTVQEKTFNKDTVIIVSEPSEDEESQGLPTMARRNDDISELEDLSELEDLKDAKLQTLKELFPQRSDNDLLKLIESTSTMDGAIAAALLMFGDAGGGPRKRKLSSSSEPYEEDEFNDDQSIKKTRLDHGEESNESAESSSNWEKQESIVLKLQKEFPNFDKQELREVLKEHEWMYTEALESLKVFAEDQDMQYVSQSEVPNGKEVSSRSQNYPKNATKTKLKQKFSMKAQNGFNKKRKKNVFNPKRVVEDSEYDSGSDVGSSLDEDYSSGEEVMEDGYKGKILHFLQDASIGELTLIPQCSQKKAQKITELRPFNSWEALFTKMSKTNGLSEDLIWHCKTLIQERDVVIRLMNKCEDISNKLTKQVTMLTGNGGGWNIEQPSILNQSLSLKPYQKVGLNWLALVHKHGLNGILADEMGLGKTIQAIAFLAYLYQEGNNGPHLIVVPASTIDNWLREVNLWCPTLKVLCYYGSQEERKQIRFNIHSRYEDYNVIVTTYNCAISSSDDRSLFRRLKLNYAIFDEGHMLKNMGSIRYQHLMTINANNRLLLTGTPVQNNLLELMSLLNFVMPHMFSSSTSEIRRMFSSKTKSADEQSIYEKERIAHAKQIIKPFILRRVKEEVLKQLPPKKDRIELCAMSEKQEQLYLGLFNRLKKSINNLEKNTEMCNVMMQLRKMANHPLLHRQYYTAEKLKEMSQLMLKEPTHCEANPDLIFEDMEVMTDFELHVLCKQYRHINNFQLDMDLILDSGKFRVLGCILSELKQKGDRVVLFSQFTMMLDILEVLLKHHQHRYLRLDGKTQISERIHLIDEFNTDMDIFVFLLSTKAGGLGINLTSANVVILHDIDCNPYNDKQAEDRCHRVGQTKEVLVIKLISQGTIEESMLKINQQKLKLEQDMTTVDEGDEGSMPADIATLLKTSMGL [SMARCAD1]	48.4 °C	49.7 °C	-0.124	2.18	3.89	-0.1
MEFSGRKWRKLRLAGDQRNASYPHCLQFYLQPPSENISLIEFENLAIDRVKLLKSVENLGVSYVKGTEQYQSKLESELRKLKFSYRENLEDEYEPRRRDHISHFILRLAYCQSEELRRWFIQQEMDLLRFRFSILPKDKIQDFLKDSQLQFEAISDEEKTLREQEIVASSPSLSGLKLGFESIYKIPFADALDLFRGRKVYLEDGFAYVPLKDIVAIILNEFRAKLSKALALTARSLPAVQSDERLQPLLNHLSHSYTGQDYSTQGNVGKISLDQIDLLSTKSFPPCMRQLHKALRENHHLRHGGRMQYGLFLKGIGLTLEQALQFWKQEFIKGKMDPDKFDKGYSYNIRHSFGKEGKRTDYTPFSCLKIILSNPPSQGDYHGCPFRHSDPELLKQKLQSYKISPGGISQILDLVKGTHYQVACQKYFEMIHNVDDCGFSLNHPNQFFCESQRILNGGKDIKKEPIQPETPQPKPSVQKTKDASSALASLNSSLEMDMEGLEDYFSEDS [PRIM2]	48.9 °C	49 °C	-0.116	0.648	2.05	0.23
MASAELQGKYQKLAQEYSKLRAQNQVLKKGVVDEQANSAALKEQLKMKDQSLRKLQQEMDSLTFRNLQLAKRVELLQDELALSEPRGKKNKKSGESSSQLSQEQKSVFDEDLQKKIEENERLHIQFFEADEQHKHVEAELRSRLATLETEAAQHQAVVDGLTRKYMETIEKLQNDKAKLEVKSQTLEKEAKECRLRTEECQLQLKTLHEDLSGRLEESLSIINEKVPFNDTKYSQYNALNVPLHNRRHQLKMRDIAGQALAFVQDLVTALLNFHTYTEQRIQIFPVDSAIDTISPLNQKFSQYLHENASYVRPLEEGMLHLFESITEDTVTVLETTVKLKTFSEHLTSYICFLRKILPYQLKSLEEECESSLCTSALRARNLELSQDMKKMTAVFEKLQTYIALLALPSTEPDGLLRTNYSSVLTNVGAALHGFHDVMKDISKHYSQKAAIEHELPTATQKLITTNDCILSSVVALTNGAGKIASFFSNNLDYFIASLSYGPKAASGFISPLSAECMLQYKKKAAAYMKSLRKPLLESVPYEEALANRRILLSSTESREGLAQQVQQSLEKISKLEQEKEHWMLEAQLAKIKLEKENQRIADKLKNTGSAQLVGLAQENAAVSNTAGQDEATAKAVLEPIQSTSLIGTLTRTSDSEVPDVESREDLIKNHYMARIVELTSQLQLADSKSVHFYAECRALSKRLALAEKSKEALTEEMKLASQNISRLQDELTTTKRSYEDQLSMMSDHLCSMNETLSKQREEIDTLKMSSKGNSKKNKSR [PPP1R21]	51.3 °C	51 °C	-0.00813	1.34	1.02	0.371
UBE2V2	52.5 °C	52.9 °C	0.122	0.348	-0.815	0.464
MVMAAKKGPGPGGGVSGGKAEAEAASEVWCRRVRELGGCSQAGNRHCFECAQRGVTYVDITVGSFVCTTCSGLLRGLNPPHRVKSISMTTFTEPEVVFLQSRGNEVCRKIWLGLFDARTSLVPDSRDPQKVKEFLQEKYEKKRWYVPPDQVKGPTYTKGSASTPVQGSIPEGKPLRTLLGDPAPSLSVAASTSSQPVSQSHARTSQARSTQPPPHSSVKKASTDLLADIGGDPFAAPQMAPAFAAFPAFGGQTPSQGGFANFDAFSSGPSSSVFGSLPPAGQASFQAQPTPAGSSQGTPFGATPLAPASQPNSLADVGSFLGPGVPAAGVPSSLFGMAGQVPPLQSVTMGGGGGSSTGLAFGAFTNPFTAPAAQSPLPSTNPFQPNGLAPGPGFGMSSAGPGFPQAVPPTGAFASSFPAPLFPPQTPLVQQQNGSSFGDLGSAKLGQRPLSQPAGISTNPFMTGPSSSPFASKPPTTNPFL [AGFG2]	46.6 °C	47.9 °C	-0.0538	0.518	0.826	0.247
MTPSQVAFEIRGTLLPGEVFAICGSCDALGNWNPQNAVALLPENDTGESMLWKATIVLSRGVSVQYRYFKGYFLEPKTIGGPCQVIVHKWETHLQPRSITPLESEIIIDDGQFGIHNGVETLDSGWLTCQTEIRLRLHYSEKPPVSITKKKLKKSRFRVKLTLEGLEEDDDDRVSPTVLHKMSNSLEISLISDNEFKCRHSQPECGYGLQPDRWTEYSIQTMEPDNLELIFDFFEEDLSEHVVQGDALPGHVGTACLLSSTIAESGKSAGILTLPIMSRNSRKTIGKVRVDYIIIKPLPGYSCDMKSSFSKYWKPRIPLDVGHRGAGNSTTTAQLAKVQENTIASLRNAASHGAAFVEFDVHLSKDFVPVVYHDLTCCLTMKKKFDADPVELFEIPVKELTFDQLQLLKLTHVTALKSKDRKESVVQEENSFSENQPFPSLKMVLESLPEDVGFNIEIKWICQQRDGMWDGNLSTYFDMNLFLDIILKTVLENSGKRRIVFSSFDADICTMVRQKQNKYPILFLTQGKSEIYPELMDLRSRTTPIAMSFAQFENLLGINVHTEDLLRNPSYIQEAKAKGLVIFCWGDDTNDPENRRKLKELGVNGLIYDRIYDWMPEQPNIFQVEQLERLKQELPELKSCLCPTVSRFVPSSLCGESDIHVDANGIDNVENA [GPCPD1]	50 °C	50.6 °C	-0.12	-0.29	-0.26	0.0477
MDSRVSELFGGCCRPGGGPAVGGTLKARGAGSSSGCGGPKGKKKNGRNRGGKANNPPYLPPEAEDGNIEYKLKLVNPSQYRFEHLVTQMKWRLQEGRGEAVYQIGVEDNGLLVGLAEEEMRASLKTLHRMAEKVGADITVLREREVDYDSDMPRKITEVLVRKVPDNQQFLDLRVAVLGNVDSGKSTLLGVLTQGELDNGRGRARLNLFRHLHEIQSGRTSSISFEILGFNSKGEVVNYSDSRTAEEICESSSKMITFIDLAGHHKYLHTTIFGLTSYCPDCALLLVSANTGIAGTTREHLGLALALKVPFFIVVSKIDLCAKTTVERTVRQLERVLKQPGCHKVPMLVTSEDDAVTAAQQFAQSPNVTPIFTLSSVSGESLDLLKVFLNILPPLTNSKEQEELMQQLTEFQVDEIYTVPEVGTVVGGTLSSGICREGDQLVVGPTDDGCFLELRVCSIQRNRSACRVLRAGQAATLALGDFDRALLRKGMVMVSPEMNPTICSVFEAEIVLLFHATTFRRGFQVTVHVGNVRQTAVVEKIHAKDKLRTGEKAVVRFRFLKHPEYLKVGAKLLFREGVTKGIGHVTDVQAITAGEAQANMGF [GTPBP2]	49.9 °C	50.1 °C	0.127	0.507	0.439	-0.711
MAAESALQVVEKLQARLAANPDPKKLLKYLKKLSTLPITVDILAETGVGKTVNSLRKHEHVGSFARDLVAQWKKLVPVERNAEPDEQDFEKSNSRKRPRDALQKEEEMEGDYQETWKATGSRSYSPDHRQKKHRKLSELERPHKVSHGHERRDERKRCHRMSPTYSSDPESSDYGHVQSPPSCTSPHQMYVDHYRSLEEDQEPIVSHQKPGKGHSNAFQDRLGASQERHLGEPHGKGVVSQNKEHKSSHKDKRPVDAKSDEKASVVSREKSHKALSKEENRRPPSGDNAREKPPSSGVKKEKDREGSSLKKKCLPPSEAASDNHLKKPKHRDPEKAKLDKSKQGLDSFDTGKGAGDLLPKVKEKGSNNLKTPEGKVKTNLDRKSLGSLPKVEETDMEDEFEQPTMSFESYLSYDQPRKKKKKIVKTSATALGDKGLKKNDSKSTGKNLDSVQKLPKVNKTKSEKPAGADLAKLRKVPDVLPVLPDLPLPAIQANYRPLPSLELISSFQPKRKAFSSPQEEEEAGFTGRRMNSKMQVYSGSKCAYLPKMMTLHQQCIRVLKNNIDSIFEVGGVPYSVLEPVLERCTPDQLYRIEEYNHVLIEETDQLWKVHCHRDFKEERPEEYESWREMYLRLQDAREQRLRVLTKNIQFAHANKPKGRQAKMAFVNSVAKPPRDVRRRQEKFGTGGAAVPEKIKIKPAPYPMGSSHASASSISFNPSPEEPAYDGPSTSSAHLAPVVSSTVSYDPRKPTVKKIAPMMAKTIKAFKNRFSRR [TCEB3]	47.8 °C	49.2 °C	0.454	0.335	1.24	-0.429
